The source of these data is patent publication US20170009288, “METHOD FOR CONTROLLED DNA FRAGMENTATION” (THERMO FISHER SCIENTIFIC BALTICS UAB, published 2017).

For series [1], the target named is T1, MuA transposase (UniProt P07636 P07636:1-663). The series can be described thus: EMSA; strong complex; 2% agarose with BSA and heparin, 1xTBE; assembled 30 C 1 h. To be noted: tags: Thermo Scientific F-750 (stand-alone MuA transposase); chain copies: 4; 5' overhang TGCT side of non-transferred strand. As to the method:
(§1) In parallel, EMSA analysis was performed for all pre-formed MuA-transposon complexes used in the first experiment (Table 3). DNA shifts resulting from transposome complex formation were analyzed using agarose gel electrophoresis in 2% agarose gel containing 87 μg/ml BSA and 87 μg/ml heparin in 1×TBE buffer. DNA was stained with ethidium bromide. […] Weaker complexes were formed with transposons No. 5, 10, 11.
A general note: Mobility shift assays separate free from complexed probe on a gel.

Series [2] addresses T1, MuA transposase. The series can be described thus: EMSA; no apparent complex formation. Particulars: tags: Thermo Scientific F-750 (stand-alone MuA transposase); chain copies: 4. As to the method:
as §1

T1 sequence (P07636 whole entry, one chain of several): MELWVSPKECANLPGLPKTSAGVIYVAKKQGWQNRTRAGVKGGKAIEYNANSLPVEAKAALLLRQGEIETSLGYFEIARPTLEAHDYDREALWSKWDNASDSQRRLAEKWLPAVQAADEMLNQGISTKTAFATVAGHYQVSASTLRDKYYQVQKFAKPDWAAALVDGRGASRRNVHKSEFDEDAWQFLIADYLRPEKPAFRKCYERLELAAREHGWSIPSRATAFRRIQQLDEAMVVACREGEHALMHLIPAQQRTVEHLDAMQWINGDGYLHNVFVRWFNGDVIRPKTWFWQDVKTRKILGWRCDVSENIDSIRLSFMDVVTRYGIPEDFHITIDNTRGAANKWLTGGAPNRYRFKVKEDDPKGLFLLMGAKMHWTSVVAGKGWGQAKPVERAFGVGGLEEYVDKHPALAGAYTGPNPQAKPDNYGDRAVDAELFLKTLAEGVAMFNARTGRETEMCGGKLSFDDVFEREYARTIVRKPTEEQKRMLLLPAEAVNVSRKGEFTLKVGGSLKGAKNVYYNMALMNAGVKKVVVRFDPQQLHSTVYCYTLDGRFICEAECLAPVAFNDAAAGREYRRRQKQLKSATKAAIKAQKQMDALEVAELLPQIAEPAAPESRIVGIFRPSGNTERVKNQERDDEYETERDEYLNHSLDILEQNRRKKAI

B1: Control native Mu transposon end (dsDNA)
DNA 1: GTTTTCGCATTTATCGTGAAACGCTTTCGCGTTTTTCGTGCGTCAGTTCA
DNA 2: TGCTGAACTGACGCACGAAAAACGCGAAAGCGTTTCACGATAAATGCGAAAAC
With B1, the binding result with MuA transposase [1] is recorded as “binds”.

B2: Transposon No. 9 (dsDNA)
DNA 1: GTTCTCGCATCTATCGTGAAAAGCTTCTCCGTTCTTCGGCCGCCGCTTCA
DNA 2: TGCTGAAGCGGCGGCCGAAGAACGGAGAAGCTTTTCACGATAGATGCGAGAAC
B2: the binding result with MuA transposase [2] is recorded as “no binding”.
